Laboratory results taken from paper PMC8409790 (mAbs, 2021).

B1: Human single-chain (sc) IL-23 (IL-12p40(23-328)-(GGGGS)x4-IL-23p19(21-189)-TEV-FLAG-8His) (ligand)
chain: IWELKKDVYVVELDWYPDAPGEMVVLTCDTPEEDGITWTLDQSSEVLGSGKTLTIQVKEFGDAGQYTCHKGGEVLSHSLLLLHKKEDGIWSTDILKDQKEPKNKTFLRCEAKNYSGRFTCWWLTTISTDLTFSVKSSRGSSDPQGVTCGAATLSAERVRGDNKEYEYSVECQEDSACPAAEESLPIEVMVDAVHKLKYENYTSSFFIRDIIKPDPPKNLQLKPLKNSRQVEVSWEYPDTWSTPHSYFSLTFCVQVQGKSKREKKDRVFTDKTSATVICRKNASISVRAQDRYYSSSWSEWASVPCSGGGGSGGGGSGGGGSGGGGSAVPGGSSPAWTQCQQLSQKLCTLAWSAHPLVGHMDLREEGDEETTNDVPHIQCGDGCDPQGLRDNSQFCLQRIHQGLIFYEKLLGSDIFTGEPSLLPDSPVGQLHASLLGLSQLLQPEGHHWETQQIPSLSPSQPWQRLLLRFKILRSLQAFVAVAARVFAHGAATLSP
B2: Human IL-23Rα protein (receptor)
chain: GITNINCSGHIWVEPATIFKMGMNISIYCQAAIKNCQPRKLHFYKNGIKERFQITRINKTTARLWYKNFLEPHASMYCTAECPKHFQETLICGKDISSGYPPDIPDEVTCVIYEYSGNMTCTWNAGKLTYIDTKYVVHVKSLETEEEQQYLTSSYINISTDSLQGGKKYLVWVQAANALGMEESKQLQIHLDDIVIPSAAVISRAETINATVPKTIIYWDSQTTIEKVSCEMRYKATTNQTWNVKEFDTNFTYVQQSEFYLEPNIKYVFQVRCQETGKRYWQPWSSLFFHKTPETVPQVTSKAFQHDTWNSGLTVASISTGHLTSDNRGDIG

Experiments:
Test in all cases: SPR
Human IL-23Rα protein = molecular target: B2
Human IL-12Rβ1-Fc = Human IL-12Rβ1-Fc (human, UniProt P42701)
[1] = molecular target: B1

| Binder | Kd (Human IL-23Rα protein) | Kd (Human IL-12Rβ1-Fc) | KD with a saturating amount of tildrakizumab bound to IL-23 [1] |
| --- | --- | --- | --- |
| B1 | 0.8 nM | 19 nM | – |
| B2 | – | – | 190 nM |
